This data set has as its system MS2 coat protein. Put plainly: apparent KD of MS2 coat protein; higher = weaker reporter binding. To be noted: Eterna round: R107. The gist of the method: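 Designed RNA switches, transcribed on-chip from Illumina sequencing clusters, were titrated with SNAP-549-labelled MS2 coat protein from 0.7 or 1.5 nM to 3 µM in twofold steps. The solution was 100 mM Tris-HCl pH 7.5, 80 mM KCl, 4 mM MgCl2, with constant ligand or without it. Apparent KD is the median over each design's normalised cluster binding-curve fits.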

The mark [1] stands for this setting: input ligand: theophylline 20 uM.
Where [2] appears, read: input ligand: tryptophan 2.4 mM.
Where [3] appears, read: input ligand: theophylline 2 mM.

With “GCACCAGGUACGGAUACCAGCUAUAGGCCCAAUGGGCGACAUGAGGAUCACCCAUGUAAUGGCCCUUGGCAGCUGUACCUGGUGC [SSThB NP+V+V2 #11 +-Same Structure]”, the “apparent KD of MS2 coat protein” value runs as follows: (input ligand: arginine 13.2 mM) 61.6 nM; under setting [1], 67.2 nM; under setting [2], 99.8 nM.

Regarding “GCACGACAUGAGGAUCACCCAUGUGCAGAUACCAGUAGGAUAUCCUACCCUUGGCAGCUGAGUGGAUCCGGAGGACCAUGGGUAA [Same State Theophylline A GF8]”, the “apparent KD of MS2 coat protein” value by setting is: (input ligand: arginine 13.2 mM) 32.8 nM; under setting [1], 61.7 nM; under setting [2], 34.7 nM.

With “GCAUCCUAGUCGGCCGCCACUGCAACAUGAGGAUCACCCAUGUCAGGCCUCAUGUGUCCUGGUAGCAGGACCGGGACUAGGAUGC [(T1)-(M1)-(M2)-(T)''-(M)'-(T)'-(T2)_Design4_2/18/17]”, the “apparent KD of MS2 coat protein” value (input ligand: arginine 13.2 mM) was found to be 34 nM, the “apparent KD of MS2 coat protein” value under setting [1] stood at 47.1 nM and the “apparent KD of MS2 coat protein” value under setting [3] was 52 nM.

In the case of “GCCGCGGCCGCGAUACACAUGGGUGUGUAACGAGGACCGGUACGGCCGCCACUCGAGAUGGUGCACAUGAGGAUCACCCAUGUGC [Exclusion Tryp A GF15]”, the “apparent KD of MS2 coat protein” value was found to be 10.3 nM (input ligand: arginine 13.2 mM); 14.9 nM (input ligand: none); 14.1 nM under setting [1]; 19.3 nM under setting [3]; 12.1 nM under setting [2].

As to “GCCUCCAGCCGAAGGAGCGCUAGAAGGUGACAUGAGGAUCACCCAUGUGUGUGAUGUGGCUAGCAGGUAGGUCGCGGAGGAGGCA [Exclusion - Arginine B (Freestyle 22)]”, the “apparent KD of MS2 coat protein” value by setting is: (input ligand: arginine 13.2 mM) 53.7 nM; (input ligand: none) 109 nM; under setting [1], 105 nM; under setting [3], 74.1 nM; under setting [2], 74.8 nM.

For the sequence “GCGGGACUUUCGGCCGCCACUGAGAGAGUCGUGUGAACAUGAGGAUCACCCAUGUAAUAUAUAUACAGGACCGGGAGGGUUGCGC [4.Q]”, the “apparent KD of MS2 coat protein” value reads like this: (input ligand: arginine 13.2 mM) 5.64 nM; (input ligand: none) 13.4 nM; under setting [1], 17.2 nM; under setting [3], 14.7 nM; under setting [2], 12.8 nM.

For “GCUACAUGAGGAUCACCCAUGUCAGCUACACGAGGACCGGUACGGCCGCCACUCGGUAGCGCUCAUCCUCGUGUGUAAGUCAAGU [Xedier]”, the “apparent KD of MS2 coat protein” value was 48.2 nM (input ligand: arginine 13.2 mM); 81.6 nM (input ligand: none); 116 nM under setting [1]; 97.5 nM under setting [3]; 23.5 nM under setting [2].

As to “GCUACAUGAGGAUCACCCAUGUGUACUGAAGGAGCGGCGAAAACGCCAGGUAGGUCGCAGUAUGUGGCUCUGGGCACGAGAUGGC [#02 Same State - Arginine A]”, the “apparent KD of MS2 coat protein” value came to 27 nM (input ligand: arginine 13.2 mM); 37.3 nM (input ligand: none); 40 nM under setting [1]; 41.3 nM under setting [3]; 30.5 nM under setting [2].

Consider “GCUACAUGAGGAUCACCCAUGUGUACUGAAGGAGCGGCGGAAACGCCAGGUAGGUCGCAGUAUGUGGCUCUGGGCACGAGAUGGC [SSAA NP+V+V2 #1]”, for which the “apparent KD of MS2 coat protein” value amounted to 20.1 nM (input ligand: arginine 13.2 mM); 33.6 nM (input ligand: none); 39.4 nM under setting [1]; 35.9 nM under setting [3]; 33.7 nM under setting [2].

For the sequence “GCUAGGUCUACGGCCGCCACUAGACGUGGGUAAGACAUGAGGAUCACCCAUGUACUACAGGCGAAUAGGACCGGGUAGACCUAGC [SSTB NP+V+V2 #12 Same Structure]”, the “apparent KD of MS2 coat protein” value (input ligand: arginine 13.2 mM) was 58.2 nM; the “apparent KD of MS2 coat protein” value (input ligand: none) is 36.4 nM; the “apparent KD of MS2 coat protein” value under setting [1] is 55 nM; the “apparent KD of MS2 coat protein” value under setting [3] worked out at 46.1 nM; the “apparent KD of MS2 coat protein” value under setting [2] came out at 15.1 nM.

For “GCUCGUUGCAUGGAUACCAGUUGAUAGGCCGCCUCCGGAUACAUGAGGAUCACCCAUGUCAACCCUUGGCAGCCACCCAAUAGGG [theeternabot_exclusion_MS2_Theo_B_27]”, the “apparent KD of MS2 coat protein” value is 10.4 nM (input ligand: arginine 13.2 mM), 13.7 nM under setting [1] and 10.6 nM under setting [2].

“GCUGCACAUUCGGCCGCCACUGCUGUUACAGGAAGCUAUAGCUCACAUGAGGAUCACCCAUGUCCCAGGACCGGGAAAGUAUGGA [theeternabot_sameState_MS2_Trp_B_39]”: the “apparent KD of MS2 coat protein” value is, setting by setting: (input ligand: arginine 13.2 mM) 41.2 nM; under setting [1], 79.2 nM; under setting [3], 74.2 nM.

For “GCUGUACCAUGAAGGAGCGCUCACGCAGUUGCGGGUACAUGAGGAUCACCCAUGUUGGGUGAGCAGGUAGGUCGCAUGGUACAGC [SSAB #17]”, the “apparent KD of MS2 coat protein” value worked out at 227 nM (input ligand: arginine 13.2 mM); 237 nM (input ligand: none); 193 nM under setting [1]; 230 nM under setting [3]; 215 nM under setting [2].

As for “GGACAACAUGAGGAUCACCCAUGUCCUGAUACCAGUCAGCGCAGUGACCCUUGGCAGCAGACGGAUACGAAAUAACUGAGAGAUA [theeternabot_sameState_MS2_Theo_A_44]”, the “apparent KD of MS2 coat protein” value is 29.2 nM (input ligand: arginine 13.2 mM), 65 nM under setting [1] and 62 nM under setting [2].

For “GGACCAGGGAGCGAUACCAGCUUGAGUGUGCUGGCCAGGCACAUGAGGAUCACCCAUGUAAGCCCUUGGCAGCGCUCCCUGGUCC [#1 Exclusion - Theophylline B Attempt #27 (HarryS)]”, the “apparent KD of MS2 coat protein” value worked out at 6.87 nM (input ligand: arginine 13.2 mM); 9.65 nM (input ligand: none); 15.3 nM under setting [1]; 13.9 nM under setting [3]; 11.1 nM under setting [2].

Consider “GGACUAACCAGAAGGAGCGACACAGCAGAAACUGCAAAUCCUCCGCACGAGGAUCACCCGUGUCAGGUAGGUCGCUGGUUAGUCG [ArgBX 28]”, for which the “apparent KD of MS2 coat protein” value (input ligand: arginine 13.2 mM) came to 37.4 nM; the “apparent KD of MS2 coat protein” value (input ligand: none) turned out to be 49.5 nM; the “apparent KD of MS2 coat protein” value under setting [1] was 55.9 nM; the “apparent KD of MS2 coat protein” value under setting [3] was 71.6 nM; the “apparent KD of MS2 coat protein” value under setting [2] was found to be 42.7 nM.

Turning to “GGACUAACCAGAAGGAGCGGCACGCAGAAACUGCAAAUUCCUCCGCACGAGGAUCACCCGUGUCAGGUAGGUCGCUGGUUAGUCG [ArgBX 28]”, the “apparent KD of MS2 coat protein” value reads like this: (input ligand: arginine 13.2 mM) 20.8 nM; (input ligand: none) 19.7 nM; under setting [1], 25.9 nM; under setting [3], 24 nM; under setting [2], 22.6 nM.

The values are drawn from the supplement of paper PMC9170038.
